Reference: paper doi:10.1101/2023.07.25.550451 (bioRxiv, 2023)
Where two headings read alike, the source gives them in different places. * marks the point of attachment. Biotin = O=C1N[C@H]2[C@H](CS[C@H]2CCCCC(=O)*)N1

Columns and labels:
[1] = biological target: T1, p97, wild-type, full-length (recombinant) (human, UniProt P55072 1-806); test: pull-down
[2] = biological target: T1, p97, wild-type, full-length …; test: pull-down; remark: listed apart in the source

T1 sequence (P55072 whole entry): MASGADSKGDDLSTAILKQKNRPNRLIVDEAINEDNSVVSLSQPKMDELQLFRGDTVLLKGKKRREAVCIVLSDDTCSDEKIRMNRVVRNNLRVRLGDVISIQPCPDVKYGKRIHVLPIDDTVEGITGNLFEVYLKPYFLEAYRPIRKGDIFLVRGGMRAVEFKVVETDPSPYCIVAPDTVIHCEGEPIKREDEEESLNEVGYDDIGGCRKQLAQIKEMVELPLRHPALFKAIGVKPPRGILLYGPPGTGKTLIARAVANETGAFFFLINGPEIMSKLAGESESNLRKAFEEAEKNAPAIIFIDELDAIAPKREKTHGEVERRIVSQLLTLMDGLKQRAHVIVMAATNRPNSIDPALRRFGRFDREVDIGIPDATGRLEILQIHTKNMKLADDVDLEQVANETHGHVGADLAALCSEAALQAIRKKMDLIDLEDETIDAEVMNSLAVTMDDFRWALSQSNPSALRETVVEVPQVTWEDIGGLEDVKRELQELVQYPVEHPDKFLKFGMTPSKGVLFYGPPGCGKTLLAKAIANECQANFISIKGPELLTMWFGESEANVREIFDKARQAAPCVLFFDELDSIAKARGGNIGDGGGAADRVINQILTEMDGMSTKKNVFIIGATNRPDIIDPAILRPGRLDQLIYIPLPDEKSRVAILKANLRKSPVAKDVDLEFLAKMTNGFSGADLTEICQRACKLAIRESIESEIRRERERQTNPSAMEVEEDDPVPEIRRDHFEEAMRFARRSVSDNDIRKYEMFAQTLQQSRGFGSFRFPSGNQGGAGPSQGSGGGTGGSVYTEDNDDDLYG

B1: biotinylated peptide spanning the conserved C-terminal alpha-helix and flanking residues of FAM104A (C180-G203 of isoform 1) (peptide)
peptide: Biotin-CQGLYFHINQTLREAHFHSLQHRG-OH
SMILES: CC[C@H](C)[C@H](NC(=O)[C@H](Cc1c[nH]cn1)NC(=O)[C@H](Cc1ccccc1)NC(=O)[C@H](Cc1ccc(O)cc1)NC(=O)[C@H](CC(C)C)NC(=O)CNC(=O)[C@H](CCC(N)=O)NC(=O)[C@H](CS)NC(=O)CCCC[C@@H]1SC[C@@H]2NC(=O)N[C@@H]21)C(=O)N[C@@H](CC(N)=O)C(=O)N[C@@H](CCC(N)=O)C(=O)N[C@H](C(=O)N[C@@H](CC(C)C)C(=O)N[C@@H](CCCNC(=N)N)C(=O)N[C@@H](CCC(=O)O)C(=O)N[C@@H](C)C(=O)N[C@@H](Cc1c[nH]cn1)C(=O)N[C@@H](Cc1ccccc1)C(=O)N[C@@H](Cc1c[nH]cn1)C(=O)N[C@@H](CO)C(=O)N[C@@H](CC(C)C)C(=O)N[C@@H](CCC(N)=O)C(=O)N[C@@H](Cc1c[nH]cn1)C(=O)N[C@@H](CCCNC(=N)N)C(=O)NCC(=O)O)[C@@H](C)O
[1]
  binding result: binds

B2: GST-FAM104A isoform 2 (natural protein)
chain: not shown
[2]
  binding result: binds

B3: GST-FAM104A isoform 1 (natural protein)
chain: not shown
[2]
  binding result: binds
